According to patent publication US20240279281A1, “Peptide Inhibitors of Interleukin-23 Receptor” (Janssen Pharmaceutica NV, priority 2023, published 2024):
Where two headings read alike, the source gives them in different places. Values belong to the molecule of their own block, whether it stands above or below them. Starred links: 1 amine or outer side, 2 acyl side, 3 side chain; linkers in the order of their positions; H or OH if unused. Positions of bridges follow the written chain, without caps; N, C: chain ends. Non-standard residues stand in square brackets, D forms with d. Residues, ends and D or L forms follow the SMILES beside them. Groups on a side chain read outwards from the residue. Primed or numbered codes have the meaning given here. *: point of attachment. TMAPF = 5-(4-(2-amino-2-carboxyethyl)phenoxy)-N,N,N-trimethylpentan-1-aminium, C[N+](C)(C)CCCCCOc1ccc(C[C@H](N[*:1])C(=O)[*:2])cc1; AEF(G) = 2-amino-3-(4-(2-guanidinoethoxy)phenyl)propanoic acid, N=C(N)NCCOc1ccc(C[C@H](N[*:1])C(=O)[*:2])cc1; 6Br2Nal = 2-amino-3-(6-bromonaphthalen-2-yl)propanoic acid, O=C([C@H](Cc1ccc2cc(Br)ccc2c1)N[*:1])[*:2]; 6F2Nal = 2-amino-3-(6-fluoronaphthalen-2-yl)propanoic acid, O=C([C@H](Cc1ccc2cc(F)ccc2c1)N[*:1])[*:2]; X22 = CN(CCOCCOCC(=O)N(C)CCOCCOCC(=O)*)C(=O)CC[C@@H](C(=O)O)N(C)C(=O)CCCCCCCCCCCCCCCCCc1nnn[nH]1; Trp(7-(3-AcNH-Ph)) = CC(=O)Nc1cccc(-c2cccc3c(C[C@H](N)C(=O)O)c[nH]c23)c1; PEG2NMePEG2NMegENMeCl8Tetrazole = not defined here; 2Nal(6-OH) = N[C@@H](Cc1ccc2cc(O)ccc2c1)C(=O)O; Trp(7-Me) = Cc1cccc2c(C[C@H](N)C(=O)O)c[nH]c12; 3Pal(5-Me) = Cc1cncc(C[C@H](N)C(=O)O)c1; γGlu = O=C(O)[C@H](CCC(=O)[*:2])N[*:1]; AEF = NCCOc1ccc(C[C@H](N)C(=O)O)cc1; 3Pal = N[C@@H](Cc1cccnc1)C(=O)O; NMecPEG3a = not defined here; Pen = CC(C)(S)[C@H](N)C(=O)O; PEG2′ = not defined here; Thp = NC1(C(=O)O)CCOCC1; Sar = CNCC(=O)O

What was measured:
IL-23R = molecular target: T1, IL-23R (Homo sapiens, UniProt Q5VWK5); experiment: IL23R Reporter Assay; type: cell-based
T1 construct: host or cells: HEK293
T1 sequence (Q5VWK5 24-629): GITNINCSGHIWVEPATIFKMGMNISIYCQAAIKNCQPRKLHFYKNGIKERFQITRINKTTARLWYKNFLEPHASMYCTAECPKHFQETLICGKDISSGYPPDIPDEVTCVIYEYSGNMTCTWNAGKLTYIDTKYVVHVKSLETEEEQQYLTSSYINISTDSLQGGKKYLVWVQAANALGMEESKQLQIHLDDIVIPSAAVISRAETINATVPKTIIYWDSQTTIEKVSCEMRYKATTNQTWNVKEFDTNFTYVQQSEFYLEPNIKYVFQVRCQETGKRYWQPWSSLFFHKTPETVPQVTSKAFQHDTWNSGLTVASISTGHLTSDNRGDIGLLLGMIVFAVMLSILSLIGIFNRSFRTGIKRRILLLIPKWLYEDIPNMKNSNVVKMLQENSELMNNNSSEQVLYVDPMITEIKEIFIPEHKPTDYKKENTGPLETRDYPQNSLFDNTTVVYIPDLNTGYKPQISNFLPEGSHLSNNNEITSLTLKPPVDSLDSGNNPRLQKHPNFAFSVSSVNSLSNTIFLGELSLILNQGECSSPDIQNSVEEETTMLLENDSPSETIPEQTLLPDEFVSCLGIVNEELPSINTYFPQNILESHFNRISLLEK
Method: Compounds were serially diluted in 100% (v/v) DMSO) and plated using an Echo acoustic dispenser (Labcyte) into 1536-well non-treated black assay plates (Corning #9146). […] After 5 h at 37° C., 5% CO2, 95% relative humidity, cells were placed at 20° C. and treated with BioGlo reagent (Promega) according to the Manufacturer's instructions. Luminescence was measured on a Pherastar FSX (BMG LabTech).

[1] = disulfide bond, 20-membered ring, I2/MeOH, 20% MeCN/H2O
[2] = molecular target: T2, IL-23-stimulated phosphorylated STAT3 in peripheral blood mononuclear cells (PBMCs) (Homo sapiens, UniProt Q5VWK5); experiment: PBMC pSTAT3 Assay; type: cell-based
T2 sequence (Q5VWK5 24-629): T1 sequence (Q5VWK5 24-629)
Procedure, shortened: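 Anti-CD3/IL-1β-expanded donor PBMCs (day 4) starved ~4 h in RPMI-0.1% BSA, preincubated 30 min with peptide, then stimulated 30 min at 37° C with 5 ng/mL IL-23 (final). Lysates read for phospho-STAT3 by Meso Scale phospho-STAT panel immunoassay.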

[3] = molecular target: T3, interleukin-23 receptor (IL-23R) (UniProt Q5VWK5 24-629, limits assumed); experiment: cell-based or functional assay
T3 sequence (looked up): T1 sequence (Q5VWK5 24-629)

[4] = molecular target: T4, interleukin-23 receptor (IL-23R) (UniProt Q5VWK5 24-629, limits assumed); experiment: cell-based or functional assay; remark: listed apart in the source
T4 sequence (looked up): T1 sequence (Q5VWK5 24-629)

PBMC pSTAT3 IC50 [3]: > 1 nM
Molecule: Ac-[dR][Pen]NT[Trp(7-Me)]K(Ac)[Pen][AEF][6Br2Nal][Thp]EN[Thp]-NH2 (disulfide 2-7 (inferred)) [SEQ ID NO: 444]

PBMC pSTAT3 IC50 [3]: < 10 pM
B1: SEQ ID NO: 349 (peptide)
peptide: Ac-X[Pen]NT[Trp(7-Me)]K(Ac)[Pen][AEF][2Nal(6-OH)][Thp]EN[3Pal][Sar]-NH2
modifications: disulfide 2-7 (inferred); not fully specified (residue 1); printed as MeCO-k(d)-Pen(3)-N-T-7MeW-K(Ac)-Pen(3)-AEF-6OH2Nal-THP-E-N-3Pya-Sar-CONH2

IL23R Reporter Assay IC50 [4]: < 10 nM
B2: SEQ ID NO: 319 (peptide)
peptide: cPEG3aCO-[Pen]NT[Trp(7-Me)]K(NMecPEG3a)[Pen][AEF][2Nal(6-OH)][Thp]EN[3Pal][Sar]-NH2
modifications: disulfide 1-6 (inferred); not fully specified; printed as cPEG3aCO-Pen(3)-N-T-7MeW-K(NMecPEG3a)-Pen(3)-AEF-6OH2Nal-THP-E-N-3Pya-Sar-CONH2; reading uncertain

PBMC pSTAT3 IC50 [3]: < 0.1 nM
Molecule: Ac-[dR][Pen]NT[Trp(7-Me)]K(Ac)[Pen][AEF][6F2Nal][Thp]EN[3Pal][Sar]-NH2 (disulfide 2-7 (inferred)) [SEQ ID NO: 407]

PBMC pSTAT3 IC50 [3]: < 0.1 nM
Molecule: Ac-[dR][Pen]NT[Trp(7-(3-AcNH-Ph))]K(Ac)[Pen][AEF][2Nal(6-OH)][Thp]EN[3Pal][Sar]-NH2 (disulfide 2-7 (inferred)) [SEQ ID NO: 287, listing 1 of 2 here]

IL23R Reporter Assay IC50 [4]: < 10 nM
Molecule: Ac-[dR][Pen]NT[Trp(7-(3-AcNH-Ph))]K(Ac)[Pen][AEF][2Nal(6-OH)][Thp]EN[3Pal][Sar]-NH2 (disulfide 2-7 (inferred)) [SEQ ID NO: 287, listing 2 of 2 here]

PBMC pSTAT3 IC50 [3]: < 0.1 nM
B4: SEQ ID NO: 319 (peptide)
peptide: cPEG3aCO-[Pen]NT[Trp(7-Me)]K(NMecPEG3a)[Pen][AEF][2Nal(6-OH)][Thp]EN[3Pal][Sar]-NH2
modifications: disulfide 1-6 (inferred); not fully specified; printed as cPEG3aCO-Pen(3)-N-T-7MeW-K(NMecPEG3a)-Pen(3)-AEF-6OH2Nal-THP-E-N-3Pya-Sar-CONH2; reading uncertain

PBMC pSTAT3 IC50 [3]: < 1 nM
Molecule: Ac-[Pen]NT[Trp(7-Me)]K(Ac)[Pen][AEF][2Nal(6-OH)][Thp]EN[3Pal][Sar]K([PEG2′-PEG2′-γGlu-C18OH])-NH2 (disulfide 1-6 (inferred)) [SEQ ID NO: 283]

PBMC pSTAT3 IC50 [3]: < 10 pM
Molecule: Ac-[Pen]NT[Trp(7-Me)]K(Ac)[Pen][AEF][2Nal(6-OH)][Thp]EN[3Pal][Sar]-NH2 (disulfide 1-6 (inferred)) [SEQ ID NO: 428]

PBMC pSTAT3 IC50 [3]: < 1 nM
Molecule: Ac-[dR][Pen]NT[Trp(7-Me)]K(Ac)[Pen][AEF][2Nal(6-OH)][Thp]EN[3Pal][Sar]K([PEG2′-PEG2′-γGlu-C18OH])-NH2 (disulfide 2-7 (inferred)) [SEQ ID NO: 282]

PBMC pSTAT3 IC50 [3]: < 10 pM
Molecule: Ac-[dR][Pen]NT[Trp(7-Me)]K(Ac)[Pen][AEF][2Nal(6-OH)][Thp]EN[3Pal][Sar]-NH2 (disulfide 2-7 (inferred)) [SEQ ID NO: 442]

More lines, now with the values behind:

Molecule: CC(=O)NCCCC[C@@H]1NC(=O)[C@H](Cc2c[nH]c3c(C)cccc23)NC(=O)[C@H]([C@@H](C)O)NC(=O)[C@H](CC(N)=O)NC(=O)[C@@H](NC(=O)[C@@H](CCCNC(=N)N)NC(C)=O)C(C)(C)SSC(C)(C)[C@@H](C(=O)N[C@@H](Cc2ccc(OCCN)cc2)C(=O)N[C@@H](Cc2ccc3cc(O)ccc3c2)C(=O)NC2(C(=O)N[C@@H](CCC(=O)O)C(=O)N[C@@H](CC(N)=O)C(=O)N[C@@H](Cc3cccnc3)C(=O)N(C)CC(=O)N[C@@H](CCCCNC(=O)COCCOCCN(C)C(=O)COCCOCCN(C)C(=O)CC[C@@H](C(=O)O)N(C)C(=O)CCCCCCCCCCCCCCCCCc3nnn[nH]3)C(N)=O)CCOCC2)NC1=O [SEQ ID NO: 115, MeCO-r-Pen(3)-N-T-7MeW-K(Ac)-Pen(3)-AEF-6OH2Nal-THP-E-N-3Pya-Sar-K(PEG2NMePEG2NMegENMeCl8Tetrazole)-CONH2] (Ac-[dR][Pen]NT[Trp(7-Me)]K(Ac)[Pen][AEF][2Nal(6-OH)][Thp]EN[3Pal][Sar]K(X22)-NH2; disulfide 2-7)
IC50 (IL-23R): 10 to 100 nM | ring closure, yield after HPLC ([1]; from Ac-dArg-Pen-Asn-Thr-7MeTrp-Lys(Ac)-Pen-AEF-6OH2Nal-THP-Glu-Asn-3Pya-Sar-Lys(PEG2NMePEG2NMegENMeCl8Tetrazole)-NH2, 0.503 mM): 8.08% | IC50 ([2]; read-out: PBMC pSTAT3 IC50, PBMCs from healthy donors, IL-23 5 ng/mL, 30 minutes): 0.1 to 1 nM

Molecule: CC(=O)NCCCC[C@@H]1NC(=O)[C@H](Cc2c[nH]c3c(-c4cccc(NC(C)=O)c4)cccc23)NC(=O)[C@H]([C@@H](C)O)NC(=O)[C@H](CC(N)=O)NC(=O)[C@@H](NC(=O)[C@@H](CCCNC(=N)N)NC(C)=O)C(C)(C)SSC(C)(C)[C@@H](C(=O)N[C@@H](Cc2ccc(OCCN)cc2)C(=O)N[C@@H](Cc2ccc3cc(O)ccc3c2)C(=O)NC2(C(=O)N[C@@H](CCC(=O)O)C(=O)N[C@@H](CC(N)=O)C(=O)N[C@@H](Cc3cccnc3)C(=O)N(C)CC(N)=O)CCOCC2)NC1=O [compound 287, MeCO-r-Pen(3)-N-T-7(3NAcPh)W-K(Ac)-Pen(3)-AEF-6OH2Nal-THP-E-N-3Pya-Sar-CONH2] (Ac-[dR][Pen]NT[Trp(7-(3-AcNH-Ph))]K(Ac)[Pen][AEF][2Nal(6-OH)][Thp]EN[3Pal][Sar]-NH2; disulfide 2-7)
IC50 (IL-23R; HEK293 cells containing IL-23R, IL-12Rβ1 and STAT-inducible luciferase reporter, 10 ng/mL IL-23, 5 h, read-out: IC50): < 10 nM | ring closure, yield after HPLC ([1]; from Ac-dArg-Pen-Asn-Thr-7(3NAcPh)Trp-Lys(Ac)-Pen-AEF-6OH2Nal-THP-Glu-Asn-3Pya-Sar-NH2, 0.8 mM): 26% | IC50 ([2]; PBMCs from healthy donors, IL-23 5 ng/mL, 30 minutes, read-out: PBMC pSTAT3 IC50): 0.01 to 0.1 nM

Molecule: Ac-[dR][Pen]NT[Trp(7-(3-AcNH-Ph))]K(Ac)[Pen][AEF(G)][2Nal(6-OH)][Thp]EN[3Pal(5-Me)][Sar]-NH2 (disulfide 2-7 (inferred)) [SEQ ID NO: 15, listing 1 of 2 here]
IL23R Reporter Assay IC50 [4]: < 10 nM

Molecule: Ac-[Pen]NT[Trp(7-Me)]K(Ac)[Pen][AEF][2Nal(6-OH)][Thp]K([PEG2′-PEG2′-γGlu-C18OH])N[3Pal][Sar]-NH2 (disulfide 1-6 (inferred)) [SEQ ID NO: 273]
PBMC pSTAT3 IC50 [3]: < 0.1 nM

B3: SEQ ID NO: 11 (peptide)
peptide: XXNTXXXXXXENXX
modifications: MeCO-k(Me)3-Pen(3)-N-T-7(3NAcPh)W-K(Ac)-Pen(3)-AEF(G)-6OH2Nal-THP-E-N-5MePyridinAla-Sar-CONH2
PBMC pSTAT3 IC50 [3]: < 10 pM

Molecule: Ac-[dR][Pen]NT[Trp(7-Me)]K(Ac)[Pen][TMAPF][2Nal(6-OH)][Thp]EN[3Pal][Sar]-NH2 (disulfide 2-7 (inferred)) [SEQ ID NO: 59]
PBMC pSTAT3 IC50 [3]: < 0.1 nM

B5: SEQ ID NO: 11 (peptide)
peptide: XXNTXXXXXXENXX
modifications: MeCO-k(Me)3-Pen(3)-N-T-7(3NAcPh)W-K(Ac)-Pen(3)-AEF(G)-6OH2Nal-THP-E-N-5MePyridinAla-Sar-CONH2
IL23R Reporter Assay IC50 [4]: < 10 nM

Molecule: Ac-[dR][Pen]NT[Trp(7-(3-AcNH-Ph))]K(Ac)[Pen][AEF(G)][2Nal(6-OH)][Thp]EN[3Pal(5-Me)][Sar]-NH2 (disulfide 2-7 (inferred)) [SEQ ID NO: 15, listing 2 of 2 here]
PBMC pSTAT3 IC50 [3]: < 10 pM

Molecule: Ac-[dR][Pen]NT[Trp(7-Me)]K(Ac)[Pen][AEF][2Nal(6-OH)][Thp]EN[3Pal][Sar]K(PEG2NMePEG2NMegENMeCl8Tetrazole)-NH2 (disulfide 2-7 (inferred); reading uncertain) [SEQ ID NO: 115]
PBMC pSTAT3 IC50 [3]: < 1 nM
